In patent publication US8969060B2, “Modified glucose dehydrogenase” (Ikeda Food Research Co., Ltd., priority 2011, dated 2015):
Several values for one entry are separate records, joined by “and”; a condition that tells them apart may be missing. Equal entries are not always repeated.

Assay: Relative enzymatic activity of GLD (DCIP/1-m-PMS, plate reader, yeast culture supernatant) with 1,10-phenanthroline present
Type: biochemical
Details: random-mutation mutants, sample value with inhibitor at 1 mM / blank value, inhibitor not named in Table 1
Method: The susceptibility defined in the present specification is evaluated in terms of a relative activity that is determined in a system wherein the inhibitor coexists or not. The relative activity is derived from a relative value (%) of an enzymatic activity (a sample value) obtained with the addition of the inhibitor in the determination of the enzymatic activity described in the present specification as compared with an enzymatic activity (a blank value) as “100%” obtained without the addition of the inhibitor in the same determination. Thus, the higher the relative activity is, the less the susceptibility to the inhibitor is (or the more the susceptibility to the inhibitor is reduced), vice versa.
The enzymatic activity is determined in the following manner in Examples 3 and 6 wherein a plate reader (Japan Molecular Device Corporation, SpectraMax Plus384) is used. Thus, culture supernatant that had been diluted in advance with an appropriate magnification is added to a 96-well microplate with an amount of 100 μl per well. A reagent for the determination of the enzymatic activity comprising phosphate buffer (pH 7.0), 1.0 M D-glucose, 3 mM DCIP, 3 mM 1-m-PMS and methanol with a volume ratio of 0.1:1:0.14:0.2:0.06 is added to the 96-well microplate with an amount of 100 μl per well, and a change in the absorbance of DCIP at 600 nm (ΔABS/min) is then determined. The enzymatic activity can be calculated by conversion in proportion to a change in the absorbance of an enzyme solution for which the enzymatic activity has already been known by the above-mentioned activity determination procedure using the spectrophotometer.
In the following examples, a value of the enzymatic activity determined by the spectrometer or plate reader using the above reagent composition is considered as a blank value. On the other hand, a sample value is determined using a methanol solution comprising the inhibitor such as 1,10-phenanthroline or proflavin hydrochloride at a final concentration of 1 mM instead of the methanol. Enzymatic activity (unit/mL)=(−ΔABS/16.3)×3.0/0.05×(Dilution ratio of enzyme) [Equation 1]
Into each well of a 96-well microplate (manufactured by Nunc, Inc.), a YPD medium containing 125 μL of 1.0% (w/v) yeast extract (manufactured by BD), 2.0% (w/v) tryptone (manufactured by BD), 2.0% (w/v) glucose (manufactured by Wako Pure Chemical Industries, Ltd.) was dispensed, and the transformant colonies obtained in Example 2 were inoculated thereinto one by one.
After shaking culture at 30° C. and 1,000 rpm for 24 hours, the culture mixture was centrifuged and the supernatant was collected.
According to the above-mentioned method for the determination of enzymatic activity, a blank value and a sample value were determined using a plate reader, and the relative activity (%) was obtained by dividing the sample value by the blank value.

| Molecule | Relative Activity |
| --- | --- |
| N287D + D343E + K494E: modified GLD: SEQ ID NO: 1 with substitutions N287D, D343E, K494E (protein, listed as Aspergillus terreus, SIGNAL (1)..(19)) MLGKLSFLSALSLAVAAPLSNSTSAKYDYIVIGGGTSGLAVANRLSEDPNVNVLILEAGGSVWNNPNVTNVDGYGLAFGSDIDWQYQSVNQPYGGNLSQVLRAGKALGGTSTINGMAYTRAEDVQIDAWETIGNTGWTWKNLFPYYRKSENFTVPTKSQTSLGASYEAGAHGHEGPLDVAFTQIESNNLTTYLNRTFQGMGLPWTEDVNGGKMRGFNLYPSTVNLEEYVREDAARAYYWPYKSRPNLHVLLNTFANRIVWDGEAHDGHITASGVEITSRNGTVRVIDAEKEVIVSAGALKSPAILELSGIGNPSVLDKHNIPVKVNLPTVGENLQDQVNSHMEASGNTSISGTKAVSYPDVYDVFGDEAESVAKQIRANLKQYAADTAKANGNIMKAADLERLFEVQYDLIFKGRVPIAEVLNYPGSATSVFAEFWALLPFARGSVHIGSSNPAEFPVINPNYFMLDWDAKSYVAVAKYIRRSFESYPLSSIVEESTPGYDVIPRNASEQSWKEWVFDKNYRSNFHPVGTAAMMPREIGGVVDERLNVYGTTNVRVVDASVLPFQVCGHLVSTLYAVAERAADLIKADAGRR | 52.2% |
| D343N + S490C: modified GLD: SEQ ID NO: 1 with substitutions D343N, S490C (protein, listed as Aspergillus terreus, SIGNAL (1)..(19)) MLGKLSFLSALSLAVAAPLSNSTSAKYDYIVIGGGTSGLAVANRLSEDPNVNVLILEAGGSVWNNPNVTNVDGYGLAFGSDIDWQYQSVNQPYGGNLSQVLRAGKALGGTSTINGMAYTRAEDVQIDAWETIGNTGWTWKNLFPYYRKSENFTVPTKSQTSLGASYEAGAHGHEGPLDVAFTQIESNNLTTYLNRTFQGMGLPWTEDVNGGKMRGFNLYPSTVNLEEYVREDAARAYYWPYKSRPNLHVLLNTFANRIVWDGEAHDGHITASGVEITSRNGTVRVINAEKEVIVSAGALKSPAILELSGIGNPSVLDKHNIPVKVNLPTVGENLQDQVNSHMNASGNTSISGTKAVSYPDVYDVFGDEAESVAKQIRANLKQYAADTAKANGNIMKAADLERLFEVQYDLIFKGRVPIAEVLNYPGSATSVFAEFWALLPFARGSVHIGSSNPAEFPVINPNYFMLDWDAKSYVAVAKYIRRSFESYPLCSIVKESTPGYDVIPRNASEQSWKEWVFDKNYRSNFHPVGTAAMMPREIGGVVDERLNVYGTTNVRVVDASVLPFQVCGHLVSTLYAVAERAADLIKADAGRR | 61.8% and 71.1% |
| D343N: modified GLD: SEQ ID NO: 1 with substitution D343N (protein, listed as Aspergillus terreus, SIGNAL (1)..(19)) MLGKLSFLSALSLAVAAPLSNSTSAKYDYIVIGGGTSGLAVANRLSEDPNVNVLILEAGGSVWNNPNVTNVDGYGLAFGSDIDWQYQSVNQPYGGNLSQVLRAGKALGGTSTINGMAYTRAEDVQIDAWETIGNTGWTWKNLFPYYRKSENFTVPTKSQTSLGASYEAGAHGHEGPLDVAFTQIESNNLTTYLNRTFQGMGLPWTEDVNGGKMRGFNLYPSTVNLEEYVREDAARAYYWPYKSRPNLHVLLNTFANRIVWDGEAHDGHITASGVEITSRNGTVRVINAEKEVIVSAGALKSPAILELSGIGNPSVLDKHNIPVKVNLPTVGENLQDQVNSHMNASGNTSISGTKAVSYPDVYDVFGDEAESVAKQIRANLKQYAADTAKANGNIMKAADLERLFEVQYDLIFKGRVPIAEVLNYPGSATSVFAEFWALLPFARGSVHIGSSNPAEFPVINPNYFMLDWDAKSYVAVAKYIRRSFESYPLSSIVKESTPGYDVIPRNASEQSWKEWVFDKNYRSNFHPVGTAAMMPREIGGVVDERLNVYGTTNVRVVDASVLPFQVCGHLVSTLYAVAERAADLIKADAGRR | 65.2% |
| D343E + L562H: modified GLD: SEQ ID NO: 1 with substitutions D343E, L562H (protein, listed as Aspergillus terreus, SIGNAL (1)..(19)) MLGKLSFLSALSLAVAAPLSNSTSAKYDYIVIGGGTSGLAVANRLSEDPNVNVLILEAGGSVWNNPNVTNVDGYGLAFGSDIDWQYQSVNQPYGGNLSQVLRAGKALGGTSTINGMAYTRAEDVQIDAWETIGNTGWTWKNLFPYYRKSENFTVPTKSQTSLGASYEAGAHGHEGPLDVAFTQIESNNLTTYLNRTFQGMGLPWTEDVNGGKMRGFNLYPSTVNLEEYVREDAARAYYWPYKSRPNLHVLLNTFANRIVWDGEAHDGHITASGVEITSRNGTVRVINAEKEVIVSAGALKSPAILELSGIGNPSVLDKHNIPVKVNLPTVGENLQDQVNSHMEASGNTSISGTKAVSYPDVYDVFGDEAESVAKQIRANLKQYAADTAKANGNIMKAADLERLFEVQYDLIFKGRVPIAEVLNYPGSATSVFAEFWALLPFARGSVHIGSSNPAEFPVINPNYFMLDWDAKSYVAVAKYIRRSFESYPLSSIVKESTPGYDVIPRNASEQSWKEWVFDKNYRSNFHPVGTAAMMPREIGGVVDERLNVYGTTNVRVVDASVHPFQVCGHLVSTLYAVAERAADLIKADAGRR | 51.8% |
| M342L + K354N: modified GLD: SEQ ID NO: 1 with substitutions M342L, K354N (protein, listed as Aspergillus terreus, SIGNAL (1)..(19)) MLGKLSFLSALSLAVAAPLSNSTSAKYDYIVIGGGTSGLAVANRLSEDPNVNVLILEAGGSVWNNPNVTNVDGYGLAFGSDIDWQYQSVNQPYGGNLSQVLRAGKALGGTSTINGMAYTRAEDVQIDAWETIGNTGWTWKNLFPYYRKSENFTVPTKSQTSLGASYEAGAHGHEGPLDVAFTQIESNNLTTYLNRTFQGMGLPWTEDVNGGKMRGFNLYPSTVNLEEYVREDAARAYYWPYKSRPNLHVLLNTFANRIVWDGEAHDGHITASGVEITSRNGTVRVINAEKEVIVSAGALKSPAILELSGIGNPSVLDKHNIPVKVNLPTVGENLQDQVNSHLDASGNTSISGTNAVSYPDVYDVFGDEAESVAKQIRANLKQYAADTAKANGNIMKAADLERLFEVQYDLIFKGRVPIAEVLNYPGSATSVFAEFWALLPFARGSVHIGSSNPAEFPVINPNYFMLDWDAKSYVAVAKYIRRSFESYPLSSIVKESTPGYDVIPRNASEQSWKEWVFDKNYRSNFHPVGTAAMMPREIGGVVDERLNVYGTTNVRVVDASVLPFQVCGHLVSTLYAVAERAADLIKADAGRR | 69.8% |
| G426S + A578V: modified GLD: SEQ ID NO: 1 with substitutions G426S, A578V (protein, listed as Aspergillus terreus, SIGNAL (1)..(19)) MLGKLSFLSALSLAVAAPLSNSTSAKYDYIVIGGGTSGLAVANRLSEDPNVNVLILEAGGSVWNNPNVTNVDGYGLAFGSDIDWQYQSVNQPYGGNLSQVLRAGKALGGTSTINGMAYTRAEDVQIDAWETIGNTGWTWKNLFPYYRKSENFTVPTKSQTSLGASYEAGAHGHEGPLDVAFTQIESNNLTTYLNRTFQGMGLPWTEDVNGGKMRGFNLYPSTVNLEEYVREDAARAYYWPYKSRPNLHVLLNTFANRIVWDGEAHDGHITASGVEITSRNGTVRVINAEKEVIVSAGALKSPAILELSGIGNPSVLDKHNIPVKVNLPTVGENLQDQVNSHMDASGNTSISGTKAVSYPDVYDVFGDEAESVAKQIRANLKQYAADTAKANGNIMKAADLERLFEVQYDLIFKGRVPIAEVLNYPSSATSVFAEFWALLPFARGSVHIGSSNPAEFPVINPNYFMLDWDAKSYVAVAKYIRRSFESYPLSSIVKESTPGYDVIPRNASEQSWKEWVFDKNYRSNFHPVGTAAMMPREIGGVVDERLNVYGTTNVRVVDASVLPFQVCGHLVSTLYAVVERAADLIKADAGRR | 65.7% |
| V431M: modified GLD: SEQ ID NO: 1 with substitution V431M (protein, listed as Aspergillus terreus, SIGNAL (1)..(19)) MLGKLSFLSALSLAVAAPLSNSTSAKYDYIVIGGGTSGLAVANRLSEDPNVNVLILEAGGSVWNNPNVTNVDGYGLAFGSDIDWQYQSVNQPYGGNLSQVLRAGKALGGTSTINGMAYTRAEDVQIDAWETIGNTGWTWKNLFPYYRKSENFTVPTKSQTSLGASYEAGAHGHEGPLDVAFTQIESNNLTTYLNRTFQGMGLPWTEDVNGGKMRGFNLYPSTVNLEEYVREDAARAYYWPYKSRPNLHVLLNTFANRIVWDGEAHDGHITASGVEITSRNGTVRVINAEKEVIVSAGALKSPAILELSGIGNPSVLDKHNIPVKVNLPTVGENLQDQVNSHMDASGNTSISGTKAVSYPDVYDVFGDEAESVAKQIRANLKQYAADTAKANGNIMKAADLERLFEVQYDLIFKGRVPIAEVLNYPGSATSMFAEFWALLPFARGSVHIGSSNPAEFPVINPNYFMLDWDAKSYVAVAKYIRRSFESYPLSSIVKESTPGYDVIPRNASEQSWKEWVFDKNYRSNFHPVGTAAMMPREIGGVVDERLNVYGTTNVRVVDASVLPFQVCGHLVSTLYAVAERAADLIKADAGRR | 44.8% |
